# Experimental data reported in patent US20150344570A1 (published 2015).
# B1: GpH7-B3 variant Q295_18N/GpL16-k0 (antibody, human IgG1, kappa)
# heavy: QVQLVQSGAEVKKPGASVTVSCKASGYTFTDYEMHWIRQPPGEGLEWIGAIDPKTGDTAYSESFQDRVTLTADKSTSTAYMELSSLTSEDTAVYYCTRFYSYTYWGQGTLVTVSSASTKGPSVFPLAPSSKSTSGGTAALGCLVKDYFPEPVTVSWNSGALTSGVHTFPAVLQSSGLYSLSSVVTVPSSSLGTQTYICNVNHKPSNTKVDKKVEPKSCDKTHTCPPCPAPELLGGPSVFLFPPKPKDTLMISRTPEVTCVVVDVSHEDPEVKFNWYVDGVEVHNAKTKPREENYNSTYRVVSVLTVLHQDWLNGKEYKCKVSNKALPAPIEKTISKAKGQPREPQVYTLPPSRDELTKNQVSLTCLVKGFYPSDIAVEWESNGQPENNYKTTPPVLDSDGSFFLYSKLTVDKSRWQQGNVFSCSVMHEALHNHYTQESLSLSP
# light: DIVMTQSPLSLPVTPGEPASISCQASESLVHSNRNTYLHWYLQKPGQSPQLLIYKVSNRFSGVPDRFSGSGSGTDFTLKISRVEAEDVGVYYCSQNTHVPPTFGQGTKVEIERTVAAPSVFIFPPSDEQLKSGTASVVCLLNNFYPREAKVQWKVDNALQSGNSQESVTEQDSKDSTYSLSSTLTLSKADYEKHKVYACEVTHQGLSSPVTKSFNRGEC
# notes: also called Ho Ab Q295_18N
# B2: GpH7-B3 variant S239_01G/GpL16-k0 (antibody, human IgG1, kappa)
# heavy: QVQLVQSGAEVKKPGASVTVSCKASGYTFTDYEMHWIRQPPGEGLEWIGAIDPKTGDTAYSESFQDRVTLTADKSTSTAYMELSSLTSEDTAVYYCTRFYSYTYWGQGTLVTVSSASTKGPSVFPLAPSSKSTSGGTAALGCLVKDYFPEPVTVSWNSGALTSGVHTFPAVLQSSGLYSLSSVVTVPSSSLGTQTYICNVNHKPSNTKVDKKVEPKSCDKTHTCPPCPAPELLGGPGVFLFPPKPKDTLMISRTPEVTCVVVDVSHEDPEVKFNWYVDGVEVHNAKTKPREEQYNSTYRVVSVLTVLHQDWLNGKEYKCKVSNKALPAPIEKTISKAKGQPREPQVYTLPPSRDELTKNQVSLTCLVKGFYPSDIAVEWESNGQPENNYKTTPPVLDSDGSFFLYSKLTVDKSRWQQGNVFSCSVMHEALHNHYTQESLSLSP
# light: DIVMTQSPLSLPVTPGEPASISCQASESLVHSNRNTYLHWYLQKPGQSPQLLIYKVSNRFSGVPDRFSGSGSGTDFTLKISRVEAEDVGVYYCSQNTHVPPTFGQGTKVEIERTVAAPSVFIFPPSDEQLKSGTASVVCLLNNFYPREAKVQWKVDNALQSGNSQESVTEQDSKDSTYSLSSTLTLSKADYEKHKVYACEVTHQGLSSPVTKSFNRGEC
# notes: also called Ho Ab S239_01G
# B3: GpH7-B3 variant S239_09D/GpL16-k0 (antibody, human IgG1, kappa)
# heavy: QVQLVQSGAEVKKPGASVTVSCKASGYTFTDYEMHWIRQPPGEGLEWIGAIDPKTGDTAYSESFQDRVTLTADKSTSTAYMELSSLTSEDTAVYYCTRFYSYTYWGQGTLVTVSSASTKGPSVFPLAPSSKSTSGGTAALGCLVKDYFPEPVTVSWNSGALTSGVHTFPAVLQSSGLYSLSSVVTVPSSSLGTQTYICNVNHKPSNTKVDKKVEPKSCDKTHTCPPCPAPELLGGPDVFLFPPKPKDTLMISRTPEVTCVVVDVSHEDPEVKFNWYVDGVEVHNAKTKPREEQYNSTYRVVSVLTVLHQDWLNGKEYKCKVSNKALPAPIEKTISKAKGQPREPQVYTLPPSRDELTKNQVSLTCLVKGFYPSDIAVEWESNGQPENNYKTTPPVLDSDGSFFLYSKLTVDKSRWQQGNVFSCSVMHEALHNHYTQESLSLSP
# light: DIVMTQSPLSLPVTPGEPASISCQASESLVHSNRNTYLHWYLQKPGQSPQLLIYKVSNRFSGVPDRFSGSGSGTDFTLKISRVEAEDVGVYYCSQNTHVPPTFGQGTKVEIERTVAAPSVFIFPPSDEQLKSGTASVVCLLNNFYPREAKVQWKVDNALQSGNSQESVTEQDSKDSTYSLSSTLTLSKADYEKHKVYACEVTHQGLSSPVTKSFNRGEC
# notes: also called Ho Ab S239_09D; GpH7-B3-06-09D/GpL16-k0
# B4: GpH7-B3 variant S239_14T/GpL16-k0 (antibody, human IgG1, kappa)
# heavy: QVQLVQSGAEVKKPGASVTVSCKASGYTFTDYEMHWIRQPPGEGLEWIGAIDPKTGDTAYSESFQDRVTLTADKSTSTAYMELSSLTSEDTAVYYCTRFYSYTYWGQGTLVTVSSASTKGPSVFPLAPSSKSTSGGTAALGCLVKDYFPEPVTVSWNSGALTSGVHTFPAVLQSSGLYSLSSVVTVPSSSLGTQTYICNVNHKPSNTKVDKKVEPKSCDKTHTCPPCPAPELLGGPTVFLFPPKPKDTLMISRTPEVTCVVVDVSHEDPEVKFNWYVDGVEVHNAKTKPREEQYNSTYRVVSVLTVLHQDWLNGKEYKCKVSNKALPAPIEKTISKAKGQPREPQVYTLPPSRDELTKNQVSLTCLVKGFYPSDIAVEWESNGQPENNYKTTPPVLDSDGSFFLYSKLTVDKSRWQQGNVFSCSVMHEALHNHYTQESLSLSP
# light: DIVMTQSPLSLPVTPGEPASISCQASESLVHSNRNTYLHWYLQKPGQSPQLLIYKVSNRFSGVPDRFSGSGSGTDFTLKISRVEAEDVGVYYCSQNTHVPPTFGQGTKVEIERTVAAPSVFIFPPSDEQLKSGTASVVCLLNNFYPREAKVQWKVDNALQSGNSQESVTEQDSKDSTYSLSSTLTLSKADYEKHKVYACEVTHQGLSSPVTKSFNRGEC
# notes: also called Ho Ab S239_14T
# B5: GpH7-B3 variant S239_18N/GpL16-k0 (antibody, human IgG1, kappa)
# heavy: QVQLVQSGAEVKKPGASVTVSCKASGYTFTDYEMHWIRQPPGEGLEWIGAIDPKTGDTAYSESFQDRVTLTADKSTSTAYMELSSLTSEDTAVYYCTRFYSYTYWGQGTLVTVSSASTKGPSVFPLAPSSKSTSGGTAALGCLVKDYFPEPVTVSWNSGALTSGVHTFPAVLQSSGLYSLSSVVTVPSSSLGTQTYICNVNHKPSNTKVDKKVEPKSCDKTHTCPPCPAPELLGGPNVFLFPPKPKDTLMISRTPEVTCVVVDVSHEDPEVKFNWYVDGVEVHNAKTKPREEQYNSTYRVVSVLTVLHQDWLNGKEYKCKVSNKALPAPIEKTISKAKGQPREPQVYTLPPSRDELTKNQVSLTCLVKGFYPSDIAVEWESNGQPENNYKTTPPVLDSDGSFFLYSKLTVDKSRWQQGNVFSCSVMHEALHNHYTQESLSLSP
# light: DIVMTQSPLSLPVTPGEPASISCQASESLVHSNRNTYLHWYLQKPGQSPQLLIYKVSNRFSGVPDRFSGSGSGTDFTLKISRVEAEDVGVYYCSQNTHVPPTFGQGTKVEIERTVAAPSVFIFPPSDEQLKSGTASVVCLLNNFYPREAKVQWKVDNALQSGNSQESVTEQDSKDSTYSLSSTLTLSKADYEKHKVYACEVTHQGLSSPVTKSFNRGEC
# notes: also called Ho Ab S239_18N
# B6: GpH7-B3 variant S239_19Q/GpL16-k0 (antibody, human IgG1, kappa)
# heavy: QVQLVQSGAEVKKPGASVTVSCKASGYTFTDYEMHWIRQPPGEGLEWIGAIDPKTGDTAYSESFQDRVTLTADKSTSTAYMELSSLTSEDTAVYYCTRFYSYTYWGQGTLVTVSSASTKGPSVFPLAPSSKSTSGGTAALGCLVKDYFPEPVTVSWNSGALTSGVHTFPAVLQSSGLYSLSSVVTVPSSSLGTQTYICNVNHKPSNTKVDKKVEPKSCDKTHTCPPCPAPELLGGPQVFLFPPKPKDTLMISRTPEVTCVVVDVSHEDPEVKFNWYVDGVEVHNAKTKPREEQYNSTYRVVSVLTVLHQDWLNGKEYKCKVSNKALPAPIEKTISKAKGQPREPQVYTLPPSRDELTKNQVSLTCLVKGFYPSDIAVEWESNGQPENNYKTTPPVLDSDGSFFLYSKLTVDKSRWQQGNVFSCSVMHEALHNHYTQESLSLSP
# light: DIVMTQSPLSLPVTPGEPASISCQASESLVHSNRNTYLHWYLQKPGQSPQLLIYKVSNRFSGVPDRFSGSGSGTDFTLKISRVEAEDVGVYYCSQNTHVPPTFGQGTKVEIERTVAAPSVFIFPPSDEQLKSGTASVVCLLNNFYPREAKVQWKVDNALQSGNSQESVTEQDSKDSTYSLSSTLTLSKADYEKHKVYACEVTHQGLSSPVTKSFNRGEC
# notes: also called Ho Ab S239_19Q
# B7: GpH7-B3 variant S267_01G/GpL16-k0 (antibody, human IgG1, kappa)
# heavy: not shown
# light: DIVMTQSPLSLPVTPGEPASISCQASESLVHSNRNTYLHWYLQKPGQSPQLLIYKVSNRFSGVPDRFSGSGSGTDFTLKISRVEAEDVGVYYCSQNTHVPPTFGQGTKVEIERTVAAPSVFIFPPSDEQLKSGTASVVCLLNNFYPREAKVQWKVDNALQSGNSQESVTEQDSKDSTYSLSSTLTLSKADYEKHKVYACEVTHQGLSSPVTKSFNRGEC
# notes: also called Ho Ab S267_01G
# B8: GpH7-B3 variant S267_02A/GpL16-k0 (antibody, human IgG1, kappa)
# heavy: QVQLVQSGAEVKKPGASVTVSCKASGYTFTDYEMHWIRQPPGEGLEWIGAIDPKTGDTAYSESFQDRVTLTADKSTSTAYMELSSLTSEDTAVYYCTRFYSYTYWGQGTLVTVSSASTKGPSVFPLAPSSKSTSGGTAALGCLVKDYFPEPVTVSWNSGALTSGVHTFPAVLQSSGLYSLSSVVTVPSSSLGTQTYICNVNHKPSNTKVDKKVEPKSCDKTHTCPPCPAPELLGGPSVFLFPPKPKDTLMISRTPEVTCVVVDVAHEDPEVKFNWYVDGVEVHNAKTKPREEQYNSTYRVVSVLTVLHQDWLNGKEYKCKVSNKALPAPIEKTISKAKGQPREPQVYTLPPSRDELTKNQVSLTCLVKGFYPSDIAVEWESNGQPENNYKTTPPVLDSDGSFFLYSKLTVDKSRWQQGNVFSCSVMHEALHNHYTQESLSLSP
# light: DIVMTQSPLSLPVTPGEPASISCQASESLVHSNRNTYLHWYLQKPGQSPQLLIYKVSNRFSGVPDRFSGSGSGTDFTLKISRVEAEDVGVYYCSQNTHVPPTFGQGTKVEIERTVAAPSVFIFPPSDEQLKSGTASVVCLLNNFYPREAKVQWKVDNALQSGNSQESVTEQDSKDSTYSLSSTLTLSKADYEKHKVYACEVTHQGLSSPVTKSFNRGEC
# notes: also called Ho Ab S267_02A
# B9: GpH7-B3 variant S267_03V/GpL16-k0 (antibody, human IgG1, kappa)
# heavy: not shown
# light: DIVMTQSPLSLPVTPGEPASISCQASESLVHSNRNTYLHWYLQKPGQSPQLLIYKVSNRFSGVPDRFSGSGSGTDFTLKISRVEAEDVGVYYCSQNTHVPPTFGQGTKVEIERTVAAPSVFIFPPSDEQLKSGTASVVCLLNNFYPREAKVQWKVDNALQSGNSQESVTEQDSKDSTYSLSSTLTLSKADYEKHKVYACEVTHQGLSSPVTKSFNRGEC
# notes: also called Ho Ab S267_03V
# B10: GpH7-B3 variant S267_08L/GpL16-k0 (antibody, human IgG1, kappa)
# heavy: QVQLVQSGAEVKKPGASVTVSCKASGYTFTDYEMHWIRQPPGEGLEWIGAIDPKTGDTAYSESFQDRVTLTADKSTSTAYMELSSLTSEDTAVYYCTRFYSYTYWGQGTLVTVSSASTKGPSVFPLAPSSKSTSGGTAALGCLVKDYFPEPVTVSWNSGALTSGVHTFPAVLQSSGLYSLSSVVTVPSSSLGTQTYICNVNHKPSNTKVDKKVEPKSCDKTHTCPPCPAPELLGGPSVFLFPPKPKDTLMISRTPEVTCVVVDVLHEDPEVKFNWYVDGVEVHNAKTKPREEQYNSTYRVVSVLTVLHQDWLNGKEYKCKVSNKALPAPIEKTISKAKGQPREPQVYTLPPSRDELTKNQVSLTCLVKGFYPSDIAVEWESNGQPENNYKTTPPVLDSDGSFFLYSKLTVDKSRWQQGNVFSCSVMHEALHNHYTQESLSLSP
# light: DIVMTQSPLSLPVTPGEPASISCQASESLVHSNRNTYLHWYLQKPGQSPQLLIYKVSNRFSGVPDRFSGSGSGTDFTLKISRVEAEDVGVYYCSQNTHVPPTFGQGTKVEIERTVAAPSVFIFPPSDEQLKSGTASVVCLLNNFYPREAKVQWKVDNALQSGNSQESVTEQDSKDSTYSLSSTLTLSKADYEKHKVYACEVTHQGLSSPVTKSFNRGEC
# notes: also called Ho Ab S267_08L
# B11: GpH7-B3 variant S267_09D/GpL16-k0 (antibody, human IgG1, kappa)
# heavy: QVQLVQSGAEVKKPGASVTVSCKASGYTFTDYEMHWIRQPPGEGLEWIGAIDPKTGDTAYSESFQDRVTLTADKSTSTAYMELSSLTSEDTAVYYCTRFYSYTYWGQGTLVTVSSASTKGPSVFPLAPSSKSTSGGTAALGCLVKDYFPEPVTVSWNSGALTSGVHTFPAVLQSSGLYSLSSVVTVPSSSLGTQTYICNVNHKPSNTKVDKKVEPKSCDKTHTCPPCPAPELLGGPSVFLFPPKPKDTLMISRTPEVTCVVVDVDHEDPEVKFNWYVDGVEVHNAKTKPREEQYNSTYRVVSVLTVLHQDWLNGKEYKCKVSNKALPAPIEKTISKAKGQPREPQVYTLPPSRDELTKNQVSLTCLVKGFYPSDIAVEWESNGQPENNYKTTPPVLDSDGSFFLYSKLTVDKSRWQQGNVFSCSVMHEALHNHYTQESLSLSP
# light: DIVMTQSPLSLPVTPGEPASISCQASESLVHSNRNTYLHWYLQKPGQSPQLLIYKVSNRFSGVPDRFSGSGSGTDFTLKISRVEAEDVGVYYCSQNTHVPPTFGQGTKVEIERTVAAPSVFIFPPSDEQLKSGTASVVCLLNNFYPREAKVQWKVDNALQSGNSQESVTEQDSKDSTYSLSSTLTLSKADYEKHKVYACEVTHQGLSSPVTKSFNRGEC
# notes: also called Ho Ab S267_09D
# B12: GpH7-B3 variant S267_16H/GpL16-k0 (antibody, human IgG1, kappa)
# heavy: not shown
# light: DIVMTQSPLSLPVTPGEPASISCQASESLVHSNRNTYLHWYLQKPGQSPQLLIYKVSNRFSGVPDRFSGSGSGTDFTLKISRVEAEDVGVYYCSQNTHVPPTFGQGTKVEIERTVAAPSVFIFPPSDEQLKSGTASVVCLLNNFYPREAKVQWKVDNALQSGNSQESVTEQDSKDSTYSLSSTLTLSKADYEKHKVYACEVTHQGLSSPVTKSFNRGEC
# notes: also called Ho Ab S267_16H
# B13: GpH7-B3 variant S298_01G/GpL16-k0 (antibody, human IgG1, kappa)
# heavy: not shown
# light: DIVMTQSPLSLPVTPGEPASISCQASESLVHSNRNTYLHWYLQKPGQSPQLLIYKVSNRFSGVPDRFSGSGSGTDFTLKISRVEAEDVGVYYCSQNTHVPPTFGQGTKVEIERTVAAPSVFIFPPSDEQLKSGTASVVCLLNNFYPREAKVQWKVDNALQSGNSQESVTEQDSKDSTYSLSSTLTLSKADYEKHKVYACEVTHQGLSSPVTKSFNRGEC
# notes: also called Ho Ab S298_01G
# B14: GpH7-B3 variant S298_02A/GpL16-k0 (antibody, human IgG1, kappa)
# heavy: not shown
# light: DIVMTQSPLSLPVTPGEPASISCQASESLVHSNRNTYLHWYLQKPGQSPQLLIYKVSNRFSGVPDRFSGSGSGTDFTLKISRVEAEDVGVYYCSQNTHVPPTFGQGTKVEIERTVAAPSVFIFPPSDEQLKSGTASVVCLLNNFYPREAKVQWKVDNALQSGNSQESVTEQDSKDSTYSLSSTLTLSKADYEKHKVYACEVTHQGLSSPVTKSFNRGEC
# notes: also called Ho Ab S298_02A
# B15: GpH7-B3 variant S298_03V/GpL16-k0 (antibody, human IgG1, kappa)
# heavy: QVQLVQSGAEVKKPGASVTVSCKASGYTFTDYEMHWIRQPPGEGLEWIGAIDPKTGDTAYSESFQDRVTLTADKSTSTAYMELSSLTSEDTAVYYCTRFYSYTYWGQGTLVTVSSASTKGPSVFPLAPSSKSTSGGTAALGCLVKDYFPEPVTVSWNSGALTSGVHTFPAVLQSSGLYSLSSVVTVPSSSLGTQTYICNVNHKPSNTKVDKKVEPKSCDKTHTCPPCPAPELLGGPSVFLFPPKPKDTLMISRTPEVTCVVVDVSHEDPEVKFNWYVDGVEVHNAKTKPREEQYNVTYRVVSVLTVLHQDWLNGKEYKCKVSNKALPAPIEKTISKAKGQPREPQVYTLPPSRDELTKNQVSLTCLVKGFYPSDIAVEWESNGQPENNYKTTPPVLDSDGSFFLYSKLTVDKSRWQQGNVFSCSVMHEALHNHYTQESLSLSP
# light: DIVMTQSPLSLPVTPGEPASISCQASESLVHSNRNTYLHWYLQKPGQSPQLLIYKVSNRFSGVPDRFSGSGSGTDFTLKISRVEAEDVGVYYCSQNTHVPPTFGQGTKVEIERTVAAPSVFIFPPSDEQLKSGTASVVCLLNNFYPREAKVQWKVDNALQSGNSQESVTEQDSKDSTYSLSSTLTLSKADYEKHKVYACEVTHQGLSSPVTKSFNRGEC
# notes: also called Ho Ab S298_03V
# B16: GpH7-B3 variant S298_04F/GpL16-k0 (antibody, human IgG1, kappa)
# heavy: not shown
# light: DIVMTQSPLSLPVTPGEPASISCQASESLVHSNRNTYLHWYLQKPGQSPQLLIYKVSNRFSGVPDRFSGSGSGTDFTLKISRVEAEDVGVYYCSQNTHVPPTFGQGTKVEIERTVAAPSVFIFPPSDEQLKSGTASVVCLLNNFYPREAKVQWKVDNALQSGNSQESVTEQDSKDSTYSLSSTLTLSKADYEKHKVYACEVTHQGLSSPVTKSFNRGEC
# notes: also called Ho Ab S298_04F
# Biological target: T1, FcγRIa (human, UniProt P12314 16-292)
# T1 construct: extracellular domain; Soluble extracellular domain expressed in FreeStyle293 cells, used as analyte in Biacore; also called FcgRI; 1a; not shown: His tag attached to the C terminus
# T1 sequence (P12314 16-292): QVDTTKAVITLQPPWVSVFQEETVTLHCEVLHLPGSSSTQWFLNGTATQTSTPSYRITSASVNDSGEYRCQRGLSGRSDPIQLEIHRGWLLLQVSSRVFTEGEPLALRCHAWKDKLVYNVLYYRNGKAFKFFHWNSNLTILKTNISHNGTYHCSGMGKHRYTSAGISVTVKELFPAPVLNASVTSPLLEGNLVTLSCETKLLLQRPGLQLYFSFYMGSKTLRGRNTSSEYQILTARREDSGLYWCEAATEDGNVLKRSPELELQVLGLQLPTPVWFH
# Assay: SPR (Biacore); Ho Ab vs HoCon Ab GpH7-B3/GpL16-k0
# Protocol: Analysis of interaction between objective antibody and the FcγR was carried out using Biacore T100 (GE Healthcare). HBS-EP+ (GE Healthcare) was used as the running buffer, and the measurement temperature was set to 25° C. Chips produced by immobilizing the antigen peptide by the amine coupling method to a Series S Sencor Chip CM5 (GE Healthcare), or alternatively, chips produced by allowing preliminarily biotinylated antigen peptides to interact with and immobilize onto a Series S Sensor Chip SA (certified) (GE Healthcare) were used. Antibodies of interest were captured onto an antigen peptide-immobilized chip, and allowed to interact to each FcγR diluted with running buffer. To regenerate and repeatedly use the chip, the antibodies captured on the chip were washed off by reacting 10 mM glycine-HCl, pH 1.5.
row,Ho/Con_1a,Binder
1,"101 relative binding, control = 100",B1
2,"101 relative binding, control = 100",B2
3,"101 relative binding, control = 100",B3
4,"101 relative binding, control = 100",B4
5,"97.9 relative binding, control = 100",B5
6,"93.4 relative binding, control = 100",B6
7,"102 relative binding, control = 100",B7
8,"108 relative binding, control = 100",B8
9,"102 relative binding, control = 100",B9
10,"99.9 relative binding, control = 100",B10
11,"106 relative binding, control = 100",B11
12,"98.2 relative binding, control = 100",B12
13,"103 relative binding, control = 100",B13
14,"106 relative binding, control = 100",B14
15,"106 relative binding, control = 100",B15
16,"107 relative binding, control = 100",B16
